The text below walks through data of patent EP4806514A2 (Lepu Biopharma Co., Ltd., dated 2025).

Positions count from the first letter of the chain named.

B1: 134C7B1 chimeric mAb (antibody, V domains shown)
VH: AVQLQQSGPELLKPGASVKISCKASGYTFTDYTMHWVKQSHGKSLEWIGGINPNYGGTSYNETFKDKATLTVDKSSNTAYMELRSLTSEDSAVYYCARIPYGSYPMDYWGQGTSVTVSS
VL: DIVMSQSPSSLTVSVGEKVTMSCKSSQSLLYSSNQKIYLAWYQQKPGQSPKLLISWASTRESGVPDRFTGSGSGTDFTLTISSVKAEDLADYYCQQYYRYRTFGGGTKLEIK
notes: Mouse variable regions fused to human IgG1 constant region
B2: 152A1D12 chimeric mAb (antibody, V domains shown)
VH: EVQLQQSGPELVKPGASVKISCKASGYTFTDYNMHWVKQSHGKSLEWIGYIYRNNGYNGYNQKFKNKATLTVDSSSSTAYMELRSLTSEDSAVYYCARNYWRGAMDYWGQGTSVTVSS
VL: QIVLTQSPAIMSASPGEKVTMTCSASSSISYMHWYQQKPGTSPKRWIYDTSKLASGVPARFSGSGSGTSYSLTISSMEAEDAGTYYCHQRSSYPWTFGGGTKLEIK
notes: as for B1
B3: 143H10E4 chimeric mAb (antibody, V domains shown)
VH: QVQLQQSDAELVKPGASVKISCKASGSTFTDHTIHWVKQRPEQGLEWIGYIYPVYGYTQNNEKFKGKATLTADKSSSTAYMQLNSLTSEDSAVYFCARSRDSNPYYFDYWGQGTTLTVSS
VL: EIVLTQSPALMAASPGEKVTITCTVSSSISSSNLHWYQQKSGTSPKPWIYGTSNLASGVPVRFSGSGSGTSYSLTISSMEAEDAATYYCQQWSSYPFTFGSGTKLKMK
notes: as for B1
B4: 155B11C6 chimeric mAb (antibody, V domains shown)
VH: QVQLQQSGAELARPGASVKMSCKASGYTFTSYTMHWVKQRPGQGLEWIGYIDPKSDYNYYNQKFKDKATLTADKSSSTAYMQLSGLTSEDSTVYYCARGFFKGYFDVWGAGTTVTVSS
VL: B3 VL with A9P, T24S, G42E, V61I, S93T, S101A, K106E, M107L
notes: as for B1
B5: 152A1D12-z17 (antibody, V domains shown)
VH: QVQLVQSGAEVKKPGASVKVSCKASGYTFTDYNMHWVKQAPGQRLEWIGYIYRNNGYNGYNQKFKNKATLTVDTSASTAYMELSSLRSEDTAVYYCARNYWRGAMDYWGQGTTVTVSS
VL: EIVLTQSPATLSLSPGERATLSCSASSSISYMHWYQQKPGQAPRLLIYDTSKLASGIPARFSGSGSGTDFTLTISSLEPEDFAVYYCHQRSSYPWTFGGGTKVEIK
notes: Humanized, human IgG1 constant region; also called 152A1D12 HU-VH1-3 / HU-VL2-0
B6: 152A1D12-z18 (antibody, V domains shown)
VH: B5 VH
VL: B5 VL with L46W, I57V
notes: Humanized, human IgG1 constant region; also called 152A1D12 HU-VH1-3 / HU-VL2-1
B7: 152A1D12-z13 (antibody, V domains shown)
VH: B5 VH
VL: B5 VL with Q41K, R44K, I57V, A59S, E78Q, V84T
notes: Humanized, human IgG1 constant region; also called 152A1D12 HU-VH1-3 / HU-VL1-0
B8: 155B11C6-z3 (antibody, V domains shown)
VH: QVQLVQSGAEVKKPGASVKVSCKASGYTFTSYTMHWVRQAPGQGLEWMGYIDPKSDYNYYNQKFKDRVTMTRDTSISTAYMELSRLRSDDTAVYYCARGFFKGYFDVWGQGTTVTVSS
VL: EIVLTQSPGTLSLSPGERATLSCSVSSSISSSNLHWYQQKPGQAPRPWIYGTSNLASGVPDRFSGSGSGTDYTLTISRLEPEDFAVYYCQQWTSYPFTFGQGTKLEIK
notes: Humanized, human IgG1 constant region; also called 155B11C6 HU-VH1-0 / HU-VL1-2
B9: 155B11C6-z4 (antibody, V domains shown)
VH: B8 VH
VL: B8 VL with A44S, D71S
notes: Humanized, human IgG1 constant region; also called 155B11C6 HU-VH1-0 / HU-VL1-3
B10: 155B11C6-z7 (antibody, V domains shown)
VH: B8 VH with M48I, V68A, M70L
VL: B8 VL
notes: Humanized, human IgG1 constant region; also called 155B11C6 HU-VH1-2 / HU-VL1-2
B11: 29H8D3-z3 (antibody, V domains shown)
VH: QVQLVQSGAEVKKPGASVKVSCKASGYTFTDHTIHWVRQAPGQGLEWMGYIYPRDGYTKYNEKFKDRVTMTTDTSTSTAYMELRSLRSDDTAVYYCARFYYGYWYFDVWGQGTTVTVSS
VL: DIVMTQSPLSLPVTPGEPASISCRSSKSLLRSNGNTYLYWFLQKPGQSPQVLIYRMSNLASGVPDRFSGSGSGTDFTLKISRVEAEDVGVYYCMQHLEYPFTFGQGTKLEIK
notes: Humanized variable regions fused to human IgG1 constant region
B12: 29H8D3-z6 (antibody, V domains shown)
VH: B11 VH with M48I, V68A
VL: B11 VL
notes: Humanized, human IgG1 constant region
B13: 29H8D3-z9 (antibody, V domains shown)
VH: B11 VH with V37M, M48I, V68A
VL: B11 VL
notes: as for B12

The target in one assay is T1, human CDH17, full length, expressed on cells (HEK293-hCDH17); AsPC-1, HCT-8, AGS, LoVo, KATO III, HT-29 tumor … (human, UniProt Q12864 23-832).
T1 construct: also called human CDH17 expressed on tumor cells
T1 sequence: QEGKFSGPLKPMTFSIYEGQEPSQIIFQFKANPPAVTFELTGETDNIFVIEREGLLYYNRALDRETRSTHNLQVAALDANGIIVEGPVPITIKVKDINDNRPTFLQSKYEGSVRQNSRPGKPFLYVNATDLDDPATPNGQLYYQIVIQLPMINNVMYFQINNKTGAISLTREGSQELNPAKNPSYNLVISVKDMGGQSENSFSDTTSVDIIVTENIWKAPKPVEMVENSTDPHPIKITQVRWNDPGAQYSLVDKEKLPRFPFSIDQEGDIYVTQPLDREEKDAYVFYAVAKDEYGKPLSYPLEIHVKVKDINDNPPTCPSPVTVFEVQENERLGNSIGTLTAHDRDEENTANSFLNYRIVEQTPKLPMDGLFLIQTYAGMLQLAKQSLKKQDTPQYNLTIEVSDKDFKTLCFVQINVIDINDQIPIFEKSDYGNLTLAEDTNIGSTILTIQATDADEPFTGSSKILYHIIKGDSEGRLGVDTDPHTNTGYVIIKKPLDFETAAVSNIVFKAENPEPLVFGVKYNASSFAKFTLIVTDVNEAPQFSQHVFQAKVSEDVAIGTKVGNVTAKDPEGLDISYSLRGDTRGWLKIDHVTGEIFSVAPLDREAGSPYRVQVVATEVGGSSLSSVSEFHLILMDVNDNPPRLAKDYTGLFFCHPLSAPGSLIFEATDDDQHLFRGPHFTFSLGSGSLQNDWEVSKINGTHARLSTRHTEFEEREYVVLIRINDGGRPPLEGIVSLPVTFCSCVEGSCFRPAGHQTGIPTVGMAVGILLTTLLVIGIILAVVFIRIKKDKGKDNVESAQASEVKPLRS
The assay is described as follows: flow cytometry, HEK293-hCDH17 cells. A general note: A flow cytometer gives signals particle by particle.
Regarding B1, the binding result is “binds”.

For the molecule B2, the binding result is “binds”.

Regarding B3, the binding result was “binds”.

Turning to B4, the binding result is “binds”.

For a further assay, the target named is T1, human CDH17, full length, expressed on …. The assay is described as follows: flow cytometry, AGS cells.
As for B5, the binding result is given as “binds”.

As to B6, the binding result is recorded as “binds”.

With B7, the binding result is listed as “binds”.

As to B8, the binding result is listed as “binds”.

For the molecule B9, the binding result is “binds”.

Consider B10, for which the binding result is reported as “binds”.

For another assay the target is unchanged. The experiment in a line: flow cytometry, AsPC-1 cells.
As for B11, the binding result is listed as “binds”.

Turning to B12, the binding result was “binds”.

In the case of B13, the binding result is recorded as “binds”.

The target of the next assay is T2, hCDH17-his (full length extracellular domain of human CDH17, Q23-M787, his tag at the C-terminal) (human, UniProt Q12864 23-787).
T2 construct: Limits of the construct (UniProt Q12864, Q23-M787, C-terminal his tag); also called human CDH17-his protein; human CDH17 protein
T2 sequence: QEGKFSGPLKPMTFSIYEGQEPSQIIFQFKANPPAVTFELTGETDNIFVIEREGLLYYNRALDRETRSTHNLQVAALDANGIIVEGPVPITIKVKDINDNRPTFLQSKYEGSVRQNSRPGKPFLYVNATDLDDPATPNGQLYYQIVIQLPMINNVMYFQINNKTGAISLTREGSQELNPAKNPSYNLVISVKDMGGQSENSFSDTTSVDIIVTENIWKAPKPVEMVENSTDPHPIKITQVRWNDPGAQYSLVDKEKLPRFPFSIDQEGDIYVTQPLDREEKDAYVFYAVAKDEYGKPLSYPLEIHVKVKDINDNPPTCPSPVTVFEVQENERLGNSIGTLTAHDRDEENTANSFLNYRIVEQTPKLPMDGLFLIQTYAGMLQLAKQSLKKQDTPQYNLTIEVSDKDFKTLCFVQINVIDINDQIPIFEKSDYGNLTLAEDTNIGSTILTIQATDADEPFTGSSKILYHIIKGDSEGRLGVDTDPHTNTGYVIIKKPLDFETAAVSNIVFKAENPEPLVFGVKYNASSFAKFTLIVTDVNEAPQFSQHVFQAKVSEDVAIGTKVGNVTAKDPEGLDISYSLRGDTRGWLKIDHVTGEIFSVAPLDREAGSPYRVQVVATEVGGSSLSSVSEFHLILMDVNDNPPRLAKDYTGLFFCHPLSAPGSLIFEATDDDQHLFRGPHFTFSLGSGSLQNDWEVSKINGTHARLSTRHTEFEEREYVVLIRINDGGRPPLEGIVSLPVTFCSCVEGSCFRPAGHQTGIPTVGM
The assay is described as follows: SPR (Biacore 8K), antibody captured on Protein A chip, hCDH17-his injected. In general terms: SPR reads the build-up and loss of mass on a sensor chip optically.
Turning to B11, the binding result is recorded as “binds”.

On to B12, for which the binding result is given as “binds”.

Consider B13, for which the binding result is given as “binds”.

B5: the binding result was “binds”.

In the case of B6, the binding result was “binds”.

B7: the binding result was “binds”.

For the molecule B8, the binding result is “binds”.

On to B9, for which the binding result is on record as “binds”.

With B10, the binding result is recorded as “binds”.

For another assay, the target named is T3, human CDH16 protein (hCDH16-his, Novoprotein, Cat. No. CJ16) (human, UniProt O75309 19-786).
T3 construct: Bought; also called human CDH16-his
T3 sequence (looked up): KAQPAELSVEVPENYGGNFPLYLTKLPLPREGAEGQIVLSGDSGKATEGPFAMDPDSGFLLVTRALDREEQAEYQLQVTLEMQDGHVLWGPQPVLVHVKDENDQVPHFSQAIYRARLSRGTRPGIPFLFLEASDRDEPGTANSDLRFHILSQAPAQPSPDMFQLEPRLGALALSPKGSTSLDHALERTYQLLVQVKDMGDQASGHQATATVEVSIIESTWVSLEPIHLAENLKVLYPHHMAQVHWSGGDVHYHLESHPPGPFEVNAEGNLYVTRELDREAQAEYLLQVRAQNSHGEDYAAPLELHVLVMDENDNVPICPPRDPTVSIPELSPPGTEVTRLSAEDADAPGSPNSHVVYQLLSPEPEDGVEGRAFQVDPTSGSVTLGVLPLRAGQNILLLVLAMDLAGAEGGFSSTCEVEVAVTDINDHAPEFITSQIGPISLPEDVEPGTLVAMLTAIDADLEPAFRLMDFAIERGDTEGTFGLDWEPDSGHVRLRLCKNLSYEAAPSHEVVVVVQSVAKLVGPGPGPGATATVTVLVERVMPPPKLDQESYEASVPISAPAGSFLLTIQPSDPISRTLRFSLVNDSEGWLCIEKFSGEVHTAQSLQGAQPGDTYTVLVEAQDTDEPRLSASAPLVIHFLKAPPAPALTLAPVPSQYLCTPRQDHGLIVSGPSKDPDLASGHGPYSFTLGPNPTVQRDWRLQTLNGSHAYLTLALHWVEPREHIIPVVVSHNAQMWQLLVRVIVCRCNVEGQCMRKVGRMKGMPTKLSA
The experiment in a line: ELISA, hCDH16-his coated at 1 ug/mL.
Regarding B1, the binding result is listed as “no binding (tested: titrated from 100 nM)”.

For the molecule B2, the binding result was “no binding (tested: titrated from 100 nM)”.

Consider B3, for which the binding result is “no binding (tested: titrated from 100 nM)”.

As to B4, the binding result was “no binding (tested: titrated from 100 nM)”.

Another assay addresses T2, hCDH17-his (full length extracellular …). The experiment in a line: ELISA, hCDH17-his coated at 2 ug/mL.
As for B1, the binding result is listed as “binds”.

For the molecule B2, the binding result is recorded as “binds”.

Regarding B3, the binding result is reported as “binds”.

Consider B4, for which the binding result is recorded as “binds”.
